Test results from patent US20190049459A1 (TOKYO INSTITUTE OF TECHNOLOGY, published 2019).

Legend:
ANT2-HA = molecular target: T1, ANT2-HA (human, UniProt P05141 1-298); assay: co-expression of ANT2-HA and FLAG-tagged uORF44 in HEK 293 T cells, immunoprecipitation by one tag, western blot by the other tag
T1 construct: Co-expressed with FLAG-tagged uORF44 in HEK 293 T cells; not shown: HA tag fused to the subtype
T1 sequence (looked up): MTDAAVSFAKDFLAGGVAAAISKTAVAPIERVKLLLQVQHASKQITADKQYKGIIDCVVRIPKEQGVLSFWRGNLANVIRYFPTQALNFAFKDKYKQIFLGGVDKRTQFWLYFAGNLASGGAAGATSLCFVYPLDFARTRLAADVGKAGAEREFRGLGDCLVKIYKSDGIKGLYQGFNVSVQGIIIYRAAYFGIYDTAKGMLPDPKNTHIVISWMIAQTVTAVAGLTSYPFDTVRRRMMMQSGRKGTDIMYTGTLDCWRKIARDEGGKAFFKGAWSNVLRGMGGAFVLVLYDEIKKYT
Description: The expression vector was transfected into HEK 293 T cells cultured in a 10 cm culture dish using Opt-MEM (Life Technologies) and FuGENE-HD (Promega). After 48 hours of transfection, the cells were washed with PBS and dissolved using 1 mL of lysis buffer (20 m Tris-HCl pH 7.5, 150 mM NaCl, 0.5% NP 40, 1×Complete EDTA free (Roche) 10 mM Glycerol 2-phosphate, 1 mM NaVO4) and allowed to stand on ice for 20 minutes. Thereafter, the cells were centrifuged at 4° C., 21,130×g for 30 minutes, and the supernatant was used for immunoprecipitation. 50 μL of anti-[…] antibody beads (Wako, 016-22784) or 50 μL of Monoclonal Anti-HA-Agarose (Sigma, A 2095) was used in the immunoprecipitation. The supernatant was mixed with antibody beads lysate, and slowly mixed at 4° C. for 1 hour. After completion of the antigen-antibody reaction, it was washed 3 times with 1 mL of a lysis buffer, and then the protein was eluted with 50 μL 1×SDS sample buffer. The eluted sample was subjected to electrophoresis by SDS-PAGE followed by western blotting or SYPRO Ruby staining. The western blotting was performed as described in paragraph “(5) Western blotting.” The SYPRO Ruby staining was performed using SYPRO Ruby protein gel stain (Life Technologies, S 12000), in accordance with a product manual. […]

DNA-PKcs = molecular target: T2, DNA-PKcs (human, UniProt P78527 1-4128); assay: anti-FLAG immunoprecipitation from HEK 293 T lysate, SDS-PAGE; band identified by mass spectrometry (Table 1)
T2 construct: Endogenous protein co-precipitated from HEK 293 T lysate and identified by mass spectrometry; also called DNK-PKcs; PRKDC

BIP = molecular target: T3, BIP (human, UniProt P11021 19-654); assay: as above
T3 construct: Endogenous protein co-precipitated from HEK 293 T lysate; also called GRP78

Measured: binding result

T3 sequence (P11021 19-654 limits assumed): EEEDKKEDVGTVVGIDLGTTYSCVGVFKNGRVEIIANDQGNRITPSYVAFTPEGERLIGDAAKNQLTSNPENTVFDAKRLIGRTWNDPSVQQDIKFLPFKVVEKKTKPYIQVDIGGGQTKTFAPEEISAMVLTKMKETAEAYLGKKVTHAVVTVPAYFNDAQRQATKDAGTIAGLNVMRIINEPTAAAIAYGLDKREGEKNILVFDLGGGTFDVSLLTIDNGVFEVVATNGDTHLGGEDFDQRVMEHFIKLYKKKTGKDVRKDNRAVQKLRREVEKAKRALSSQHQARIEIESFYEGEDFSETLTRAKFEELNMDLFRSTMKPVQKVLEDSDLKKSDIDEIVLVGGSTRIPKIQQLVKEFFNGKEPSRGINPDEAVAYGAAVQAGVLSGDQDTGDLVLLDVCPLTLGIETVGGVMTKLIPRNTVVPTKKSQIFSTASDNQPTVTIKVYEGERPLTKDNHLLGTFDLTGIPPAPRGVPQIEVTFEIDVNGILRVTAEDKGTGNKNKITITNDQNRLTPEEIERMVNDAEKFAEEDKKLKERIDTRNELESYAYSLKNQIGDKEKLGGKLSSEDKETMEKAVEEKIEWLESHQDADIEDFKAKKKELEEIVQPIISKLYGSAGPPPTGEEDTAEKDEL
T2 sequence (P78527 whole entry): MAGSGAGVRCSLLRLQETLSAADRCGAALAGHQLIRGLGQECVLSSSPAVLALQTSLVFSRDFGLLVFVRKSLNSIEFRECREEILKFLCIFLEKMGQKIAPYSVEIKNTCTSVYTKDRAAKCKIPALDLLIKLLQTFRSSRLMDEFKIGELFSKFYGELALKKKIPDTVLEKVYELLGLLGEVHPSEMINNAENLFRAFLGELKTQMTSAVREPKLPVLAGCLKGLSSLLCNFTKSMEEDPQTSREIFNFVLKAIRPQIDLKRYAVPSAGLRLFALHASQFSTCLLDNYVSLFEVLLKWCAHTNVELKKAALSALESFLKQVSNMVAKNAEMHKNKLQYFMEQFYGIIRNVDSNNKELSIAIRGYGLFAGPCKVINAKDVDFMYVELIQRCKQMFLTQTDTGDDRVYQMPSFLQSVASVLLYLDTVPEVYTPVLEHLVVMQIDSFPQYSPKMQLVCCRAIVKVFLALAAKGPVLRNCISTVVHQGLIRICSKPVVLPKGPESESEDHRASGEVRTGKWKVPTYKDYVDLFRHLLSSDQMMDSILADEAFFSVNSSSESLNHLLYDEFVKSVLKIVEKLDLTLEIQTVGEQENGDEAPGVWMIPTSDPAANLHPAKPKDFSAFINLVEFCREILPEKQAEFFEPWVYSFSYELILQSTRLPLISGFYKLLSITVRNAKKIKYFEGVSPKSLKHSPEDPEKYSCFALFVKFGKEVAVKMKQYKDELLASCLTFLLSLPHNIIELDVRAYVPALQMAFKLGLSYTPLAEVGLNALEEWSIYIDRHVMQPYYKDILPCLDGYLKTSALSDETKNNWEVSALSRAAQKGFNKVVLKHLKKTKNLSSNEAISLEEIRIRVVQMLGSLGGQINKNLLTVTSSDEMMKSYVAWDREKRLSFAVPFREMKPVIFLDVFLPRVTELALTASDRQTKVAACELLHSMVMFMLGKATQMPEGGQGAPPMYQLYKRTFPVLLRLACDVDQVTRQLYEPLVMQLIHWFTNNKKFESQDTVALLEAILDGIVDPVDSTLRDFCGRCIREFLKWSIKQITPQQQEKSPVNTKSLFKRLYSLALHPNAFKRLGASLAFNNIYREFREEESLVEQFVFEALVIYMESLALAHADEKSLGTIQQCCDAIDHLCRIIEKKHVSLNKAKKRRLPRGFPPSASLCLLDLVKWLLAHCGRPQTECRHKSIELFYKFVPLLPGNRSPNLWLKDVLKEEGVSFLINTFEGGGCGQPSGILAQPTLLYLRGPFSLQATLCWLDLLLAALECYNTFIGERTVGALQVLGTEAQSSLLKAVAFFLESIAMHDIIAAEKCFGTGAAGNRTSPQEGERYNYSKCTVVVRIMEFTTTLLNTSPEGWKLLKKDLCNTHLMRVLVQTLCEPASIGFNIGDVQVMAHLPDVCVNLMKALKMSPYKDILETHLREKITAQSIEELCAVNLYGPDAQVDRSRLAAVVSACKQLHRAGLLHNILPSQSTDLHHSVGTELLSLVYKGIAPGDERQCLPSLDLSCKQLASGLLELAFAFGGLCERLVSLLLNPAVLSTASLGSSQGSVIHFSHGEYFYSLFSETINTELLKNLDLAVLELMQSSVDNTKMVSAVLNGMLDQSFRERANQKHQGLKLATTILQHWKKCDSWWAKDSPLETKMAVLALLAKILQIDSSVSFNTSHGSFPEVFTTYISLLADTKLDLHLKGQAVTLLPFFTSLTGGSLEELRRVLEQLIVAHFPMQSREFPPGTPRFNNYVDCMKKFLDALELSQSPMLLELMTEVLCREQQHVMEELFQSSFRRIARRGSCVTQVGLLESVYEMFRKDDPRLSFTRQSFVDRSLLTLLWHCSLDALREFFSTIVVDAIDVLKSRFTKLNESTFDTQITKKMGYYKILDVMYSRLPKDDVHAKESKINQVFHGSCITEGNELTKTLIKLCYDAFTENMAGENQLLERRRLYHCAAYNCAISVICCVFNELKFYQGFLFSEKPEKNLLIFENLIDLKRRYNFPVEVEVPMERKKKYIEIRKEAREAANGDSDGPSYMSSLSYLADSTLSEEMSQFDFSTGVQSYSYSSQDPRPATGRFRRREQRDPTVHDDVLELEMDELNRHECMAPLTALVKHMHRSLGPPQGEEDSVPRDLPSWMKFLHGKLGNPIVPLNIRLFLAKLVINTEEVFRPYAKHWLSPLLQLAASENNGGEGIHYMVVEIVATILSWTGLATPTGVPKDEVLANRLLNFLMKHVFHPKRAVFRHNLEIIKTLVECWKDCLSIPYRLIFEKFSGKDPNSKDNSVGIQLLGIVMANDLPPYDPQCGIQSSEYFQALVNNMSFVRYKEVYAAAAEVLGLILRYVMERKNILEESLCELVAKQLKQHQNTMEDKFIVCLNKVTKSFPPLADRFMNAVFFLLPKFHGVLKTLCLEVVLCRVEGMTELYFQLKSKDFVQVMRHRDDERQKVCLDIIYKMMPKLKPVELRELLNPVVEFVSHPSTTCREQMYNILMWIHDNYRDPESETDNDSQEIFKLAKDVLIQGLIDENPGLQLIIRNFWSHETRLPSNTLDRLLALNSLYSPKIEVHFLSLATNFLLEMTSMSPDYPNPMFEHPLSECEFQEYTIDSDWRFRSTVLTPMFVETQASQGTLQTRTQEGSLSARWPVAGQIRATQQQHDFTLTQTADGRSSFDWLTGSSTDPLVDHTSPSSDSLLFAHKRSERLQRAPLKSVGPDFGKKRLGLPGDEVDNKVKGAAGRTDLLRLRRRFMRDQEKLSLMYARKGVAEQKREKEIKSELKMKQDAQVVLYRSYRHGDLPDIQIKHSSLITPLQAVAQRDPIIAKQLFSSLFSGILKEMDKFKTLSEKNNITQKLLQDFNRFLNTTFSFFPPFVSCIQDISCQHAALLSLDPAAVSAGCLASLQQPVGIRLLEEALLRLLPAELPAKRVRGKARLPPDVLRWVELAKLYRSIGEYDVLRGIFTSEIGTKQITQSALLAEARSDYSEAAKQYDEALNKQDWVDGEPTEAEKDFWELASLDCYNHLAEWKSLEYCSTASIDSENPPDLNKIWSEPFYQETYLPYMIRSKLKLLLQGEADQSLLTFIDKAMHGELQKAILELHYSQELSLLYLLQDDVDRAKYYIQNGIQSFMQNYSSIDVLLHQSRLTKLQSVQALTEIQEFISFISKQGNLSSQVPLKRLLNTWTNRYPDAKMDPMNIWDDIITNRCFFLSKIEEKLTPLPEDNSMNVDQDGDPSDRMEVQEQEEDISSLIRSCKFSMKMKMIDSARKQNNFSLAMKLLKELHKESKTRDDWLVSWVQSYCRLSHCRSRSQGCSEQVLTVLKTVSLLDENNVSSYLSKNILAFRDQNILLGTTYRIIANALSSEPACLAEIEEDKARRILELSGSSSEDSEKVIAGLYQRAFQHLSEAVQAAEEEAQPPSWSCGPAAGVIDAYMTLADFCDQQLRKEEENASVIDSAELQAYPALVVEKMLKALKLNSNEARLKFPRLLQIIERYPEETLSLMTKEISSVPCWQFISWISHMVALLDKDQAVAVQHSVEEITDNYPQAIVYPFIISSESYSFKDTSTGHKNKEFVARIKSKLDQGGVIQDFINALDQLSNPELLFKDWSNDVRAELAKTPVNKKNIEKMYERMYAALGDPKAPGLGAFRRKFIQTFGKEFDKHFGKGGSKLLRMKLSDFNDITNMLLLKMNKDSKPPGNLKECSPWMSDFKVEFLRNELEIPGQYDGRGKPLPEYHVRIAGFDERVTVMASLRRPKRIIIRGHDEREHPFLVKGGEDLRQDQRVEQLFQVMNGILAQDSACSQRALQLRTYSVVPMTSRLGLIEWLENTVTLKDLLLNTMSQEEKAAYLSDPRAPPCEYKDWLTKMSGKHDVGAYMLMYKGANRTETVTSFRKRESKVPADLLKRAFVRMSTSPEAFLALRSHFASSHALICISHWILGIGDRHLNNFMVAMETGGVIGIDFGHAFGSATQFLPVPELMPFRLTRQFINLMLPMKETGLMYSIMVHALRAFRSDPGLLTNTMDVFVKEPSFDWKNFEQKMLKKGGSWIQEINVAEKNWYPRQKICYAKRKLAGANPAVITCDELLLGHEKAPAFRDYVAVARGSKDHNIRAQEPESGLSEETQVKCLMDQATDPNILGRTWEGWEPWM

B1: FLAG-tagged uORF44p (protein derived from uORF44, an upstream ORF in the mRNA of ARHGEF9) (other, not shown: small tags and cut ends)
chain: MDSLTEQRLTSPNLPAPHLEHYSVLHCTMTLDVQTVVVFAVIVVLLLVNVILMFFLGTR
notes: Expressed from a pcDNA3 FLAG vector in HEK 293 T cells; also called uORF44 protein; mental activity-related protein
binds: all assays above
